# Paper PMC3676522 (Synapse (New York, N.Y.), 2011)
# Experiments:
# [1] = target: DA transporter (DAT) (Rattus norvegicus, UniProt P23977); test: [3H]DA uptake into rat striatal synaptosomes; type: biochemical
# [2] = target: human DAT (Homo sapiens, UniProt Q01959); test: Dissociation of [3H]WIN 35,428 binding from HEK/hDAT cells; conditions: for Dissociation rate K−1 of [3H]WIN 35,428 binding (single component model): experiment B
# Chain of human DAT (Q01959 whole entry): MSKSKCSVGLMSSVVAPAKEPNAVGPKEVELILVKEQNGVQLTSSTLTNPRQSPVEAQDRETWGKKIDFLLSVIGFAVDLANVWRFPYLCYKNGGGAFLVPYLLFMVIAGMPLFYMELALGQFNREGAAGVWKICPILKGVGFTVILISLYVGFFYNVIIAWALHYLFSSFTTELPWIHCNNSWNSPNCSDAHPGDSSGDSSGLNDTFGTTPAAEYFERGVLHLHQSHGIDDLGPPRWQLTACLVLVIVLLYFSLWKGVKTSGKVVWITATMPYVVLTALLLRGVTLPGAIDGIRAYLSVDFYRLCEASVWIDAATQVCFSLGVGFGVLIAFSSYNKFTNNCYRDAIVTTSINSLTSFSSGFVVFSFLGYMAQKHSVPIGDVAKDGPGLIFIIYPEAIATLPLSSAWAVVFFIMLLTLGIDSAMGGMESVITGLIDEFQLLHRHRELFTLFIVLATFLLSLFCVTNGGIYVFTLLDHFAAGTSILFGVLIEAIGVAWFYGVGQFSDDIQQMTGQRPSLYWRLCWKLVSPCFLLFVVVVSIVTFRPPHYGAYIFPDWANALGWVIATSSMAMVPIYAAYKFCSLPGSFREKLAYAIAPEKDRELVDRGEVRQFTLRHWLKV
# Chain of DA transporter (DAT) (P23977 whole entry): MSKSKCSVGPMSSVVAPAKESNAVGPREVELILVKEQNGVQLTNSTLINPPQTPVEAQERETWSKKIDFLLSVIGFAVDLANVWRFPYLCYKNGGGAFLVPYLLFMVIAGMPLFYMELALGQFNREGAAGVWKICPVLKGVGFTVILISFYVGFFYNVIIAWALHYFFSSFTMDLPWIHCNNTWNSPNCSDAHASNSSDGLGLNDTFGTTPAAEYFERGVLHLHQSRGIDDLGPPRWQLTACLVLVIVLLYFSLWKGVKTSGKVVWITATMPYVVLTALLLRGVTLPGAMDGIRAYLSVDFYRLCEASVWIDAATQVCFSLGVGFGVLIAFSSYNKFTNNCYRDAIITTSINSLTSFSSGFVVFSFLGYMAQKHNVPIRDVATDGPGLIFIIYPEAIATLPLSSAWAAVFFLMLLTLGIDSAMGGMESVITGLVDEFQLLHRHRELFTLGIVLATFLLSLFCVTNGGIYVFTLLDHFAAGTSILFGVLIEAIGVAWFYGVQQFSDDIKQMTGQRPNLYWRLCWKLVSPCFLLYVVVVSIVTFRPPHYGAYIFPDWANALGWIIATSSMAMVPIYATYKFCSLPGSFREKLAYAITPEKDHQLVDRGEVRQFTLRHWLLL
molecule,measurement,setting,value
COC(=O)[C@H]1[C@@H](OC(=O)c2ccccc2)C[C@@H]2CC[C@H]1N2C [Cocaine],Specific Uptake (percentage of control),[1]; control (cocaine alone),100%
"CN[C@@H]1C[C@@H](c2ccc(Cl)c(Cl)c2)c2ccccc21.Cl [Indatraline, indatraline hydrochloride]",Specific Uptake (percentage of control),"[1]; indatraline 10 nM, control = cocaine alone",33%
"Tat: Recombinant HIV-1 Tat1-86 protein, LA1/Bru strain of HIV-1 clade B, Genbank accession no. K02013 (protein) MEPVDPRLEPWKHPGSQPKTACTTCYCKKCCFHCQVCFTTKALGISYGRKKRRQRRRPPQGSQTHQVSLSKQPTSQPRGDPTGPKE",Specific Uptake (percentage of control),"[1]; Tat 5 μM, control = cocaine alone",45%
same,"Dissociation rate of [3H]WIN 35,428 relative to that observed with cocaine alone",[2]; Tat added after cocaine,25%
same,"Dissociation rate K−1 of [3H]WIN 35,428 binding (single component model)","[2]; condition-2: cocaine 10 μM at time 0, Tat 5 μM added 5 min later",0.08 ± 0.005 min⁻¹
same,"Dissociation rate K−1 of [3H]WIN 35,428 binding (single component model)",[2]; condition-3: Tat 5 μM alone,0.03 ± 0.009 min⁻¹
